T1: MED15 (mouse (Mus musculus; endogenous in CH12), UniProt Q924H2 1-789)
T1 construct: MED15, Mus musculus, endogenous lower Tail subunit of Mediator; only the C-terminal portion (from residue 620) is seen in the map; source: endogenous, CH12 mouse B lymphoma nuclear extract; immunopurified as part of Mediator (FLAG M2 agarose, FLAG peptide elution)
T1 sequence (looked up): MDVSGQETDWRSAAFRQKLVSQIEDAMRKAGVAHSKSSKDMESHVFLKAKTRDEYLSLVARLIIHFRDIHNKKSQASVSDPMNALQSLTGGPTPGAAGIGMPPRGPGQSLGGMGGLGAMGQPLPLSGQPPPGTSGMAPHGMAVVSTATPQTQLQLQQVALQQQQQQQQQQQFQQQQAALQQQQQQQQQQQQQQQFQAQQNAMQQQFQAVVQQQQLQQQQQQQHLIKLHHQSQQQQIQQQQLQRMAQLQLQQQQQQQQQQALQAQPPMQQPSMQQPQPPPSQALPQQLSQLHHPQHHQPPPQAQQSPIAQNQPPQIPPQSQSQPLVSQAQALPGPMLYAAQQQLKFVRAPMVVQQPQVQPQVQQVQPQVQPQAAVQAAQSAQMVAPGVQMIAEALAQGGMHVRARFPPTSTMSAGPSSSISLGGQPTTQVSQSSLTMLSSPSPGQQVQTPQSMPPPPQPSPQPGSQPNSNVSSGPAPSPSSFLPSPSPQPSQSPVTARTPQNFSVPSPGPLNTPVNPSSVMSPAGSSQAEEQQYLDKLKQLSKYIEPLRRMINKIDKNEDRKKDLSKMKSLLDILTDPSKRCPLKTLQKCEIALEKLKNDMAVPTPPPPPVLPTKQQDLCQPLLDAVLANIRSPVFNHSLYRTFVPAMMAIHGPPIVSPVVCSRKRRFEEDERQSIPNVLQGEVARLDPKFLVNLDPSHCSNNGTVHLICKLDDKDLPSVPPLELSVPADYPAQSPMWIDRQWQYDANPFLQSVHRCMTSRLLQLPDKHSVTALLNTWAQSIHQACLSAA

T2: MED16 (mouse (Mus musculus; endogenous in CH12), UniProt Q6PGF3 1-828)
T2 construct: MED16, Mus musculus, endogenous lower Tail subunit of Mediator; source: endogenous, CH12 mouse B lymphoma nuclear extract; immunopurified as part of Mediator (FLAG M2 agarose, FLAG peptide elution)
T2 sequence (looked up): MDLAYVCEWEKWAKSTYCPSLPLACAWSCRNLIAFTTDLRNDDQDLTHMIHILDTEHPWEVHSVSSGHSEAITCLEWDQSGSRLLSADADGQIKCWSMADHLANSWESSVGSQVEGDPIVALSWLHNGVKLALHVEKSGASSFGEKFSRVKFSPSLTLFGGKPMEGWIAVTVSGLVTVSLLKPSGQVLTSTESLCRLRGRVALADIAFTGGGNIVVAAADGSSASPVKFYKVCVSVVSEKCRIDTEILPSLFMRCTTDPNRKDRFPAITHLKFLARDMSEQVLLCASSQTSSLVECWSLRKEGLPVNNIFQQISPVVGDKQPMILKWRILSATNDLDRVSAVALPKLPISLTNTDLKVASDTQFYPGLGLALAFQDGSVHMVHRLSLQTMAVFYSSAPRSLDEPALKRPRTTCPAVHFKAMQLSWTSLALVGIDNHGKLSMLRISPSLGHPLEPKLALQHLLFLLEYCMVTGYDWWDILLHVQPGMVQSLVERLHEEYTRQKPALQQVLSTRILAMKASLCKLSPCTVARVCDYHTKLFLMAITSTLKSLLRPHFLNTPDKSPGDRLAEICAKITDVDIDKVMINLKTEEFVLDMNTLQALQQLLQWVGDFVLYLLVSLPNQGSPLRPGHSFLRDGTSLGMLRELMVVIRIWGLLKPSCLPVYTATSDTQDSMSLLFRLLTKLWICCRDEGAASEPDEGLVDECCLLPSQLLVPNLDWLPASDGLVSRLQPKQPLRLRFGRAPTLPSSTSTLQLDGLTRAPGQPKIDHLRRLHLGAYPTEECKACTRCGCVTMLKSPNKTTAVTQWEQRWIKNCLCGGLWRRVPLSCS

B1: MED24 (natural protein, mouse (Mus musculus; endogenous in CH12), UniProt Q99K74 1-987, looked up)
chain: MKVVNLKQAILQAWKERWSDYQWAINMKKFFPKGATWDILNLAEALLEQAMIGPSPNPLILSYLKYAISSQMVSCSSVLTAISKFDDFSRDLCVQALLDIMDMFCDRLSCHGKAEECIGLCRALLSALHWLLRCTAASAERLQEGLEAGTPAPGEKQLALCLQCLEKTLSSTKNRALLHIAKLEEASSWTAIEHSLLKLGEILANLSNPQLRSQAERCGTLIRSIPSMLSVHSEQLHKTGFPTIHALILLEGTMNLTGEMQPLVEQLMMVKRMQHIPTPLFVLEIWKACFVGLIESPEGTQELKWTAFTYLKIPQVLVKLKKYFHGEKDFTEDVNCAFEFLLKLTPLLDKADQRCNCDCTNFLLQECNKQGLLSEVNFASLVGKRTADRDPQLKSSENANIQPNPGLILRAEPTVTNILKTMDADHSKSPEGLLGVLGHMLSGKSLDLLLAAAAATGKLKSFARKFINLNEFTTHGSGESTKTASVRALLFDISFLMLCHVAQTYGSEVILSESSSGEEVPFFETWMQTCMPEEGKILNPDHPCFRPDSTKVESLVALLNNSSEMKLVQMKWHEACLSISAAILEILNAWENGVLAFESIQKITDNIKGKVCSLAVCAVAWLVAHVRMLGLDEREKSLQMIRQLAGPLYSENTLQFYNERVVIMNSILEHMCADVLQQTATQIKFPSTGVDTMPYWNLLPPKRPIKEVLTDIFAKVLEKGWVDSRSIHILDTLLHMGGVYWFCNNLIKELLKETRKEHTLRAVQLLYSIFCLDMQQVTLVLLGHILPGLLTDSSKWHSLMDPPGTALAKLAVWCALSSYSSHKGQASSRQKKRHREDIEDYVSLFPVEDMQPSKLMRLLSSSDDDANILSSPTDRSMNSSLSASQLHTVNMRDPLNRVLANLFLLISSILGSRTAGPHTQFVQWFMEECVGCLEQDSRGSILQFMPFTTVSELVKVSAMSSPKVVLAITDLSLPLGRQVAAKAIAAL
notes: MED24, Mus musculus, endogenous lower Tail subunit of Mediator; source: endogenous, CH12 mouse B lymphoma nuclear extract; immunopurified as part of Mediator (FLAG M2 agarose, FLAG peptide elution)
B2: MED17 (natural protein, mouse (Mus musculus; endogenous in CH12), UniProt Q8VCD5 1-649, looked up)
chain: MSGVRAVRISIESACEKQVQEVGLDGTETYLQPLSMSQNLARLAQRIDFSQGSGSEEEEAAGPDGDAPDWGGAGADQDDEEGLVKFQPSLWPWDSVRNNLRSALTEMCVLYDVLSIVRDKKFMTLDPVSQDALPPKQSPQTLQLISKKKSLAGAAQILLKGAERLTKSVAENQENKLQRDFNSELLRLRQHWKLRKVGDKILGDLSYRSAGSLFPHHGTFEVIKNTDIDLDKKIPEDYCPLDVQIPSDLEGSAYIKVSIQKQAPDIGDLGTVNLFKRPLPKSKPGSPHWQTKLEAAQNVLLCKEIFAQLSREAVQIKSQIPHIVVKNQIISQPFPSLQLSISLCHSSDDKKSQKCAAEKPGQEDHLYVLEHNLHLLIREFHKQTLSSIVMPHPASAPFGHKRMRLSGPQAFDKNEINSIQSTEGLLEKIIKQAKHIFLRSRTAATIDSLASRIEDPQIQAHWSNINDVYESSVKVLITSQGYEQICKSIQLQLNIGVEQVRVVHRDGRVIMLSHQEQELQDFLLSQMSQHQVHAVQQLAKVMGWQVLSFSNHVGLGPIESIGNASAITVASPSGDYAISVRNGPESGSKIMVQFPRNQCKDLPKSDVLQDSKWSHLRGPFKEVQWNKMEGRNFVYKMELLMSALSPCLL
notes: MED17, Mus musculus, endogenous Head module scaffold subunit of Mediator; source: endogenous, CH12 mouse B lymphoma nuclear extract; immunopurified as part of Mediator (FLAG M2 agarose, FLAG peptide elution)
B3: MED27 (natural protein, mouse (Mus musculus; endogenous in CH12), UniProt Q9DB40 1-311, looked up)
chain: MADVLSVGVNLEAFSQAISAIQALRSSVSRVFDCLKDGMRNKETLEGREKAFIANFQDNLHSVNRDLNELERLSNLVGKPSENHPLHNSGLLSLDPVQDKTPLYSQLLQAYKWSNKLQYHAGLASGLLNQQSLKRSANQMGVSAKRRPKAQPTTLVLPPQYVDDVISRIDRMFPEMSIHLSRPNGTSAMLLVTLGKVLKVIVVMRSLFIDRTIVKGYNESVYTEDGKLDIWSKSSYQVFQKVTDHATTALLHYQLPQMPDVVVRSFMTWLRSYIKLFQAPCQRCGKFLQDGLPPTWRDFRTLEAFHDTCRQ
notes: MED27, Mus musculus, endogenous upper Tail subunit of Mediator; source: endogenous, CH12 mouse B lymphoma nuclear extract; immunopurified as part of Mediator (FLAG M2 agarose, FLAG peptide elution)
B4: MED29 (natural protein, mouse (Mus musculus; endogenous in CH12), UniProt Q9DB91 1-199, looked up)
chain: MAAPQPQAAAVSSASGVSGPGSAGGPGPQQQPQPTQLVGSAQSGLLQQQQQDFDPVQRYKMLIPQLKESLQTLMKVAAQNLIQNTNIDNGQKSSDAPLQRFDKCLEEFYALCDQLELCLRLAHECLSQSCDSAKHSPTLVPTATKPDAVQPDSLPYPQYLAVIKAQITCAKDIHTALLDCANKVTGKTTAPSTGPGGSL
notes: MED29, Mus musculus, endogenous upper Tail subunit of Mediator; source: endogenous, CH12 mouse B lymphoma nuclear extract; immunopurified as part of Mediator (FLAG M2 agarose, FLAG peptide elution)

Columns and labels:
Assay in all cases: cryo-EM structure; endogenous mouse Mediator immunopurified from CH12 nuclear extract through 3×FLAG-MED19 or 3×FLAG-MED25; eluted in 50 mM HEPES pH 7.9, 100 mM KCl, 5% glycerol, 1 mM EDTA, 0.005% NP-40; map at 4.0 Å overall, focused refinement of the MED1 and knob/hook ends (6-10 Å)
Settings in all cases: both partners purified
MED1 = target: T3, MED1 (mouse (Mus musculus; endogenous in CH12), UniProt Q925J9 1-1575)
T3 construct: MED1, Mus musculus, endogenous Middle module subunit of Mediator; only a partial model of the folded N-terminal portion was built; Partial model only; this part of the map is at about 6-8 Å; also called Mediator subunit MED1; source: endogenous, CH12 mouse B lymphoma nuclear extract; immunopurified as part of Mediator (FLAG M2 agarose, FLAG peptide elution)

MED15 = target: T1, MED15
MED16 = target: T2, MED16
MED17 = target: B2
MED27 = target: B3

T3 sequence (Q925J9 whole entry): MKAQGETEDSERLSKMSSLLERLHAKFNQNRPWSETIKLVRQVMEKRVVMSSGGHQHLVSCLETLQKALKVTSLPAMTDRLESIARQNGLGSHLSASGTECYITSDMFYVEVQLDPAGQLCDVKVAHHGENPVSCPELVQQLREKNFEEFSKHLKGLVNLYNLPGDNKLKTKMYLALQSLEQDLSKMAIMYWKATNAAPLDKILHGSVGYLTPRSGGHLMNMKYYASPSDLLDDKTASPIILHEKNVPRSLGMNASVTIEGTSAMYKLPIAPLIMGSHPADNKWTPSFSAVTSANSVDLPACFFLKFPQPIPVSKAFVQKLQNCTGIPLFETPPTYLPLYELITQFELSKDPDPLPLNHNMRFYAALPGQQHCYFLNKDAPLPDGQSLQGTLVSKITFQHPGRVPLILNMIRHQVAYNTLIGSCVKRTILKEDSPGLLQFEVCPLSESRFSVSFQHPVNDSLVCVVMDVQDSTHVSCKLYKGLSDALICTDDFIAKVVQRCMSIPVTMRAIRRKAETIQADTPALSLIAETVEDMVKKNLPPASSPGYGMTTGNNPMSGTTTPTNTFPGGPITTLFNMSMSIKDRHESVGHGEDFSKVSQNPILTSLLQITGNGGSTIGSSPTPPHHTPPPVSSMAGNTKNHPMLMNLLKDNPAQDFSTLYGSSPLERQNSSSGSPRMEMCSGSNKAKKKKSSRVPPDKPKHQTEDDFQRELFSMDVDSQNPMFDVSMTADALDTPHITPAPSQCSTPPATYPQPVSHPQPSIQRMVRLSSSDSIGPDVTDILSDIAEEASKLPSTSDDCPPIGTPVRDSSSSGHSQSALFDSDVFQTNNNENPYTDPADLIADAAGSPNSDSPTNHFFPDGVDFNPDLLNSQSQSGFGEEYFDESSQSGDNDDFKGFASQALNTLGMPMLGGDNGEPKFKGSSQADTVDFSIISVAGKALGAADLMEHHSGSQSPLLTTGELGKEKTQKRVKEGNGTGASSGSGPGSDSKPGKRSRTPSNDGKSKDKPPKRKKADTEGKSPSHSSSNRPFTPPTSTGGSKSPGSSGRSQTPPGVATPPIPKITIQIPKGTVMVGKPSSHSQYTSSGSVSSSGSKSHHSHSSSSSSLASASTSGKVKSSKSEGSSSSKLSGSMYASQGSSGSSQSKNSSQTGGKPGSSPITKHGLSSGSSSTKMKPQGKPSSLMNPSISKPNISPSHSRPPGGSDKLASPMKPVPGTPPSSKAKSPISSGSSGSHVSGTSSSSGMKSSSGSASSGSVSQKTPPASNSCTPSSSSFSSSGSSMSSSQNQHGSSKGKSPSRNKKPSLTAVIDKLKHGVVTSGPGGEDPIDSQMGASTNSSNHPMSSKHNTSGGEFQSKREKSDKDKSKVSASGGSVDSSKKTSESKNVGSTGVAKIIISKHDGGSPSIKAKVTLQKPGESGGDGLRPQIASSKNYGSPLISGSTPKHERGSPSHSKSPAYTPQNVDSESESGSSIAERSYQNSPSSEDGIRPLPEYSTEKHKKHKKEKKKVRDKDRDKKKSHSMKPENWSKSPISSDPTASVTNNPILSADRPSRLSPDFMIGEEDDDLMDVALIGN

binding result (MED1)	binding result (MED15)	binding result (MED16)	binding result (MED17)	binding result (MED27)	Binder
binds					B1
	binds				B2
	binds	binds	binds		B3
	binds	binds		binds	B4
